biological target: recombinant NPM1 (Nucleophosmin), probe of the protein array (human, UniProt P06748 1-294); experiment: peptide or protein array
Sequence (P06748 whole entry): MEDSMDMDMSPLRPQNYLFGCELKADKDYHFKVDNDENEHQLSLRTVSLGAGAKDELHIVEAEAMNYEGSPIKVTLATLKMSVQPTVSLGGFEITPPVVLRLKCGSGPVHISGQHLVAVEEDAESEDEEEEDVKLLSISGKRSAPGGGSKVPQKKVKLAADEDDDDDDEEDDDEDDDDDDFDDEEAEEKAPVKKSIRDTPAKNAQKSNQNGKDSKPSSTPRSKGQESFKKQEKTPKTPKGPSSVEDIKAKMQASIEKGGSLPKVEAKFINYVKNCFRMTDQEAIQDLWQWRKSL

binding result	Binder
binds	MED11 (natural protein, human, UniProt Q9P086 1-117, looked up) MATYSLANERLRALEDIEREIGAILQNAGTVILELSKEKTNERLLDRQAAAFTASVQHVEAELSAQIRYLTQVATGQPHEGSSYSSRKDCQMALKRVDYARLKLSDVARTCEQMLEN
binds	TAF9 (natural protein, human, UniProt Q16594 1-264, looked up) MESGKTASPKSMPKDAQMMAQILKDMGITEYEPRVINQMLEFAFRYVTTILDDAKIYSSHAKKATVDADDVRLAIQCRADQSFTSPPPRDFLLDIARQRNQTPLPLIKPYSGPRLPPDRYCLTAPNYRLKSLQKKASTSAGRITVPRLSVGSVTSRPSTPTLGTPTPQTMSVSTKVGTPMSLTGQRFTVQMPTSQSPAVKASIPATSAVQNVLINPSLIGSKNILITTNMMSSQNTANESSNALKRKREDDDDDDDDDDDYDNL
binds	MED31 (natural protein, human, UniProt Q9Y3C7 1-131, looked up) MAAAVAMETDDAGNRLRFQLELEFVQCLANPNYLNFLAQRGYFKDKAFVNYLKYLLYWKDPEYAKYLKYPQCLHMLELLQYEHFRKELVNAQCAKFIDEQQILHWQHYSRKRMRLQQALAEQQQQNNTSGK
binds	GTF2A2 (natural protein, human, UniProt P52657 1-109, looked up) MAYQLYRNTTLGNSLQESLDELIQSQQITPQLALQVLLQFDKAINAALAQRVRNRVNFRGSLNTYRFCDNVWTFVLNDVEFREVTELIKVDKVKIVACDGKNTGSNTTE
binds	GTF2E2 (natural protein, human, UniProt P29084 1-291, looked up) MDPSLLRERELFKKRALSTPVVEKRSASSESSSSSSKKKKTKVEHGGSSGSKQNSDHSNGSFNLKALSGSSGYKFGVLAKIVNYMKTRHQRGDTHPLTLDEILDETQHLDIGLKQKQWLMTEALVNNPKIEVIDGKYAFKPKYNVRDKKALLRLLDQHDQRGLGGILLEDIEEALPNSQKAVKALGDQILFVNRPDKKKILFFNDKSCQFSVDEEFQKLWRSVTVDSMDEEKIEEYLKRQGISSMQESGPKKVAPIQRRKKPASQKKRRFKTHNEHLAGVLKDYSDITSSK

Source: paper doi:10.1101/852095 (bioRxiv, 2019)
